{"source": "patent US8632989B1", "about": "“Mutant insulin degrading enzyme and methods of use” (University of Kentucky Research Foundation, priority 2011, dated 2014)", "molecules": {"B1": {"name": "IDE: Native rat insulin degrading enzyme (SEQ ID NO:1), expressed as hexahistidine fusion protein in Sf9 insect cells (protein, listed as Rattus norvegicus)", "chain": "MRNGLVWLLHPALPSTLHSILGARPPPVKRLCGFPKQIYSTMNNPAIQRIEDHIVKSPEDKREYRGLELANGIKVLLISDPTTDKSSAALDVHIGSLSDPPNIPGLSHFCEHMLFLGTKKYPKENEYSQFLSEHAGSSNAFTSGEHTNYYFDVSHEHLEGALDRFAQFFLCPLFDASCKDREVNAVDSEHEKNVMNDAWRLFQLEKATGNPKHPFSKFGTGNKYTLETRPNQEGIDVREELLKFHSTYYSSNLMAICVLGRESLDDLTNLVVKLFSEVENKNVPLPEFPEHPFQEEHLKQLYKIVPIKDIRNLYVTFPIPDLQQYYKSNPGHYLGHLIGHEGPGSLLSELKSKGWVNTLVGGQKEGARGFMFFIINVDLTEEGLLHVEDIILHMFQYIQKLRAEGPQEWVFQECKDLNAVAFRFKDKERPRGYTSKIAGKLHYYPLNGVLTAEYLLEEFRPDLIDMVLDKLRPENVRVAIVSKSFEGKTDRTEQWYGTQYKQEAIPEDVIQKWQNADLNGKFKLPTKNEFIPTNFEILALEKDATPYPALIKDTAMSKLWFKQDDKFFLPKACLNFEFFSPFAYVDPLHCNMAYLYLELLKDSLNEYAYAAELAGLSYDLQNTIYGMYLSVKGYNDKQPILLKKITEKMATFEIDKKRFEIIKEAYMRSLNNFRAEQPHQHAMYYLRLLMTEVAWTKDELKEALDDVTLPRLKAFIPQLLSRLHIEALLHGNITKQAALGVMQMVEDTLIEHAHTKPLLPSQLVRYREVQLPDRGWFVYQRRNEVHNNCGIEIYYQTDMQSTSENMFLELFCQIISEPCFNTLRTKEQLGYIVFSGPRRANGIQGLRFIIQSEKPPHYLESRVEAFLITMEKAIEDMTEEAFQKHIQALAIRRLDKPKKLSAECAKYWGEIISQQYNYDRDNIEVAYLKTLSKDDIIKFYKEMLAVDAPRRHKVSVHVLAREMDSCPVVGEFPSQNDINLSEAPPLPQPEVIHNMTEFKRGLPLFPLVKPHINFMAAKL", "modifications": "hexahistidine tag; wild-type Insulin Degrading Enzyme (IDE) from rat"}}, "target": "T1, Abz-GGFLRKHGQ-EDDnp (Rattus norvegicus, UniProt P35559)", "T1 construct": "begin at methionine 42, which is believed to be the in vivo start site, and extend through the native C-terminal residue leucine 1019; hexahistidine with linker holding a TEV protease site (N, cleaved yes); made in house; host or cells: SF9 insect cells (baculovirus, pFastBac HTb)", "T1 sequence (P35559 42-1019)": "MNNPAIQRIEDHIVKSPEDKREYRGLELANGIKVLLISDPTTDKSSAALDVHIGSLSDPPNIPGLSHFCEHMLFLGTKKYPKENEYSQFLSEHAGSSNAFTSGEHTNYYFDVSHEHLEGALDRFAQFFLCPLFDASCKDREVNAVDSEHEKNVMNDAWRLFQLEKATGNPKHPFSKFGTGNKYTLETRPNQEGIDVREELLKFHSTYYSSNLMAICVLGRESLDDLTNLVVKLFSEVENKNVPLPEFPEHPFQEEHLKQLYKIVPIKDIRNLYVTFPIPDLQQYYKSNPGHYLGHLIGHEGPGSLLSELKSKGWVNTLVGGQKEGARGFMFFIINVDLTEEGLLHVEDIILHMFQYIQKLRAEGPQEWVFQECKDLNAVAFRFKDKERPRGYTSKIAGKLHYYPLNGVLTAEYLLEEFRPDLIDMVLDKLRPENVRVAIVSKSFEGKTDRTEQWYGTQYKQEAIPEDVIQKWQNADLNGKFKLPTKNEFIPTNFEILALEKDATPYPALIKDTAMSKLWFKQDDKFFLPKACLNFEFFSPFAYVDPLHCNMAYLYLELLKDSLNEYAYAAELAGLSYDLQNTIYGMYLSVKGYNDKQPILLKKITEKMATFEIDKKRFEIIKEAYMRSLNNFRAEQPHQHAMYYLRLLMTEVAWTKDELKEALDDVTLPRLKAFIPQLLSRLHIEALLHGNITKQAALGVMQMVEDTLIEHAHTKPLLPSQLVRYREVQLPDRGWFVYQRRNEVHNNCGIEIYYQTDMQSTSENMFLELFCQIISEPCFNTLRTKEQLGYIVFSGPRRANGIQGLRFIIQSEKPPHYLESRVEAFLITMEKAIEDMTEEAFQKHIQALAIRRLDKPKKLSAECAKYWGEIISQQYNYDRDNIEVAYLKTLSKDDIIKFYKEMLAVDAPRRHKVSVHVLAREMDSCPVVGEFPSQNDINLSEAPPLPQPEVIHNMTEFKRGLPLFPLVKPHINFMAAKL", "assay": "Activation by bradykinin, wild type rIDE and distal site mutants", "type": "biochemical", "details": "10 μM Abz-GGFLRKHGQ-EDDnp as substrate", "experimental": "FIG. 17. Effects of distal site mutations. (A) Comparison of the kinetics of wild type IDE with the distal site mutants. Activity was measured with varying amounts of Abz-[…]-EDDnp (SEQ ID NO:3) substrate as indicated. Either hyperbolic (Michaelis-Menten equation) or sigmoidal curves (Hill equation) were fit to the data. (B) Effect of bradykinin on the activity of wild type IDE and the distal site mutants. (C) Activation of wild type IDE and distal site mutants by ATP. Relative activity is the fold activation above the level of the wild type enzyme alone.\nThe activity of IDE was measured by following the increase in fluorescence upon hydrolysis at the L-R bond of the fluorogenic peptide Abz-[…]-EDDnp (SEQ ID NO:3) on a SpectraMax Gemini XS fluorescence plate reader using an excitation wavelength of 318 nm and emission wavelength of 419 nm. Reactions were carried out in 200 μl volumes containing 50 mM Tris-HCl, pH 7.4, 1.92 μg of wild type rIDE, 4.6 μg of rIDE-V360S, 4.3 μg rIDE-I374S, or 1.63 μg of rIDE-Y609F. For measurements of activation by bradykinin, IDE activity was determined with 10 μM Abz-[…]-EDDnp (SEQ ID NO:3) as substrate in 50 mM Tris-HCl buffer, pH 7.4. The amount of protein was 0.5 μg for wild type rIDE and 5 μg for each of the IDE distal-site mutants. Data were analyzed using Softmax 4.0 (Molecular Devices) and kinetic parameters calculated with Prism (Graphpad Software). […]", "data": [{"molecule": "B1", "values": [{"measurement": "Heterotropic activation with bradykinin", "result": "approximately 4 fold"}]}]}
